A short description of this data set: label from the status in PepcDB records.
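Note: failed if final PepcDB status was selected cloned or expressed and not failed if soluble or beyond.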

On to “MKSRWIIGRSEYLDLAFHAWKQARQDETVIRIEVPQDSEHEFDLGVLDGLNPTDGAMFVAFDERFGNFKRVELMQAAMERGFKLESYIHSSAAIGTDVVIGLNTFVGAHAVVGHGCKIDYNTVIHAGAHLGTACRIKSSCWIENGVQIGAGVEIGGNSILRTGAIVRGGIKVGRSCELGWPRVYCEDVPAKTYFDARYHNPIHTFGT”, for which the protein production result is “failed”.

For “MKSTEKKELSHFRLKLETYLNEHFPEMSGNNPFITARSDEALTAYCDAVAQGFSHPEAESMASEVLYQGLHFSRYDTLVSVLEREFEQELPSPLPERLAPILLKNKAIQSVFAKYDLTDDFEASPEYEHLYTELTGTIVLLIESNHLPTIGGGNDTV”, the protein production result was “not failed”.

As for “MKSTFSVLFFVKKDKQKINGSYPIFVRITIDGVASRFNSKLDVQPKLWDGKAGKAAGRSAEATRINRLLDDINASLNTIYHELQRRDNYVTAEKVKNEFLGHSENHDTILNLFQKHNDDVKQLVGISKTIATYRKYEVTRRHLAEFIQSKYNLSDISIKEITPMFITDFELYLRTTCKCGYNTTAKFMQFFKRIILIARNNGILIGDPFANYKIRLEKVDRGYLTEDEIKIILKKKMVSERLEQVRDVFIFSCFSGLAYVDVANLKEDNIRKSFDGNLWIITKRQKTNTDVNVPLLDIPKMILEKYKGKLPNGKVLPIISNQK”, the protein production entry was “not failed”.

Consider “MKSVKTLLTRPFNWVVLTFCIIFVGLFIFTFFNAKFYDTPIGQITQINNTQSTQVSDEHHNKDTKHKETLHIHILNGKFEGKTTTITHEYTESQADSEAFSKNDKVLLHVDKNLTTAYITEKKRDSLVVAITGIFLLTVLLVGKKIGLQSILSLALNTCIVLLAIYIHNQSPNISLFGLMSIAIFISTTLTLVLVTGWQWRTLITIISTLLGTFLCVGITQCIIQITDGSGLKFETMSFLTLPPKEVFLASVMIGSLGAVMDVAITIASGMAEILRRTPDISMRRWALAGCNIGQDIMGTMTNILLFSYLSGSLPMLLIYLKNANTITYTISMNWSLEISRAITGGIGIVLTIPITILLMQVWFKLRGVKS”, for which the protein production entry is listed as “failed”.

Take “MKSVQEKRNNTRAFKTVAKSWFATKTTWSEDYQRSVWTRLETYLFPDIGNKDIAELDTGDLLVPIKKIEKLGYLEIAMRVKQYATAIMRYAVQQKMIRFNPAYDLEGAVQKLEHHHHHH”: the protein production result is “not failed”.

For “MKSWTILLSTLCLFSCNQQENKFEKYVDPLIGTDIRIVQGKDKNSTEERGQIMPAVGVPHGMTNWVAQTQATEQKCHPPYYYFQDAIQGFRASHWMNGSCTQDYGSITIMPLSNKLEIDPVKRASTFDHTQETATPSYYSVDLNDYDIHAELTGLSRAGIMQFSFEQDGDHYIVIEPNSDEGVAFVEIDPEKKEITGYNPVHRIYQGYGKEAGFSGHFVIQLNEEIADYGVWDSTTITPGRKSAKGQKHAVGAWIKLTSDKPGKILVKVATSFTSIDNARKNLAAEIPGWNFNEVRQASSDIWNQALGQIAVKGNNEKEKVKFYSALYNAHFLPRAFSDVDGSYPRFDGDGQIMKMDHGTYYCDFSQWDTYRAVHPLFSILTPSRNGDMAHSLVLKGQQGGWLPIFPSWNSYTAAMIGDHCIAMIGDAIVKDTPGFDYEEAYTLMRKNAFEANPDSGSYRDGKGRRAMESYLKYNYVPLEDQVTEAFHRREQVSRTLEYAYDDFVLAQVAKKLGKTDDYKALIKRAENYRNVIDPETGYARGRHADGTWIEPFDPFASTSFICEGTPYHYTWYAPQDIAGLIRHMGGKERFINRLDNFFEGNYYWHGNEPGHHIAYLFAYAGEPWKTQKWVHDIINREYFTTPDGLSGNDDAGQMSSWLVFSMVGFYPVCPGMPYYVIGSPSFEESVITLENGKKFTIEAKGASEKNIYIQSATLNGQPYNKSYILHKDIMNGGILSFVMGDSPNKEWASSAGSLPPSMGL”, the protein production entry is “failed”.

In the case of “MKTDTEWLLCDFHVHTNMSDGHLPLGEVVDLFGKHGVDVVSITDHIVDRRTLEQRKRNGEPLGAITEDKFQDYLKRLWREQKRAWEEYGMILIPGVEITNNTDLYHIVAVDVKEYVDPSLPVEEIVEKLKEQNALVIAAHPDRKKQDEEHLSWYLWANMERFKDTFDAWEIANRDDLFNSVGVKKYRYVANSDFHELWHVYSWKTLVKSEKNIEAIKEAIRKNTDVAIYLMRKNRLSSLSDVI”, the protein production entry is “not failed”.

Take “MKTEKFFTHPIGVFIAAIVATFLWGSAFPFIKLSYVELGIQPQEVGEQILFAGYRFFLSGFMLLLFFKVLGKDMSFKKGTGKQLIQIGLFQTFLQYICFYIGMSYSSGIEGAIISGTSSFFQILLAHFLYKDDALNMRKIIGVSIGFCGVVLVNMPSDGSLSFHFGIGSLLLLSAAMLYSYGNILAKEGSKTLDVGYMTAYQMMFGSIGLLCIGALQVGVMPFTFSLHALLMLIYLSFLSAAGFCIWNTIMKYNKVGKVSMYMFFIPVFGVLLSSMILGEAIHSFVLLGLACVAAGIIVVNRTPAKQKIEKEKQVA”: the protein production entry was “failed”.

Take “MKTESTGKALMVLGCPESPVQIPLAIYTSHKLKKKGFRVTVTANPAALRLVQVADPEGIYTDEMVDLESCINELAEGDYEFLAGFVPNDAAAAYLVTFAGILNTETLAIIFDRDADVLEELVNEIMETLDAEIIAARAHHNPAPLRVRIDRFMEEKP”: the protein production entry was “not failed”.

Turning to “MKTFHLTTQSRDEMVDITSQIETWIRETGVTNGVAIVSSLHTTAGITVNENADPDVKRDMIMRLDEVYPWHHENDRHMEGNTAAHLKTSTVGHAQTLIISEGRLVLGTWQGVYFCEFDGPRTNRKFVVKLLTD”, the protein production entry is “not failed”.

“MKTFIWNSNYETGVAKVDDQHQCLVEIINEYSHLLANNTTTETDIELTLNKLIDYTKFHFKDEEQLMYSVGLDTRHITHHEKLHRDILDEISTLLSDQVTDKLSIARYILDLIIHWLVYHILGTDMNMAKLEHHHHHH”: the protein production result is recorded as “failed”.

Consider “MKTFIWNSNYETGVAKVDDQHQCLVEIINEYSHLLANNTTTETDIELTLNKLIDYTKFHFKDEEQLMYSVGLDTRHITHHEKLHRDILDEISTLLSDQVTDKLSIARYILDLIIHWLVYHILGTDMNMAKQMKAIQGGLSARDAYDFEEKIKDKSTEPLLEALNALFIQISERNKDLMELNKTLEAKVISRTQQLSERNKELAILSLTDPLTNMANRRHAMQQLTLLWEESVNNNLPLSCLMIDVDYFKQINDTHGHDIGDVVLIELARVFQHAIRTDDIACRLGGDEFFIICPATELEGGLLIAELINEQVESLSIDISDSQLSLSTSIGVATKTAQMTSIEDLMKAADDGVYSAKSNGRGCTKSIQ”, for which the protein production result was “failed”.

Turning to “MKTFKGKVTTTLAVLSAMSLFAFSASLLAGSLDLSGRSDDDTQQDTGRKPAQIIDFVGVEKGDKVLDLLAGGGYYSELLSRVVGEKGEVTLQIPKAYLKYAEKSIKVRLANDRLKNVTYLLSEADDLKLSENTYDSAFLVLGFHDMFFKEDSWNFTADEVMPQVLTSLKSGGKLLVIDHDATENSGIRDVKSLHRIDSAFVKADLEKRGFKLVKTSKILENNADDHSKLVFVPELRRKTDRFVMLFEKI”, the protein production result is listed as “failed”.

“MKTHFYRLKFKKSIFFAVFLSFFSLLFAVDYFEEGKKLLYADKPQEAVSALFKASQEAGTPKSVYLYLGVAYFRMGKYSEALTYLSQGKDKDILNGHLYYYNIGNVYFLQNQFEASELAYNEAISSNGLYAPAFLNRANTRIKLEKLEGALQDYKIYLNLNPETLQRSSIEKMISLLEGLAEEAERAKALAEAKKAAEEAERLAAEARYKKLMEDVNANLSSVDNADALSAGADNTIDYSEENELD”: the protein production entry is reported as “failed”.

“MKTIDLADIQAFLYRESRLLDDKAWDAWLDCYRADAVFWMPSWDDADALVTDPQREISLIYYPNRQGLEDRVFRIKTERSSATVPDTRTSHNIANVERESADGDVHTVRFNWHTLSYRYKTVSSYFGMSRYAIDFSGDAPKIVSKYVVLKNDYINQLIDIYHI”: the protein production entry was “not failed”.

Consider “MKTIGLLGGMSWESTIPYYRLINEGVKARLGGLHSASLVLHSVDFHDIEACQSAGDWDRAGEILAEAAVGLQQAGAEGIVLCTNTMHKVADAIAARCQVPFLHIADATGRAIAAKGQRRVALLGTRYTMEQTFYRGRLQEQFAIETLIPEADDRAQINQIIFDELCLGTFSEASRDYYLQTIAALAEQGAEGVIFGCTEIGLLVPAELSPLPVFDTAAIHAEDAVNFMLSAGPTPAA”, for which the protein production entry is “failed”.

Turning to “MKTINIVAGGPKNLIPDLTGYTDEHTLWIGVDKGTVTLLDAGIIPVEAFGDFDSITEQERRRIEKAAPALHVYQAEKDQTDLDLALDWALEKQPDIIQIFGITGGRADHFLGNIQLLYKGVKTNIKIRLIDKQNHIQMFPPGEYDIEKDENKRYISFIPFSEDIHELTLTGFKYPLNNCHITLGSTLCISNELIHSRGTFSFAKGILIMIRSTDLEHHHHHH”, the protein production entry was “not failed”.

For the sequence “MKTINVITLVLLIVGGLNWGLVGLFQFDLVAALFGGQDALLSRVVYTLVGISALRQLVPLFRNNHDTAEHHTSPHVRNNP”, the protein production result was “failed”.

Take “MKTITTTKSPTVKDYIDAYLIERKYCAAPSTLASDLSRAKNINEALGEFPINAVSHTQINMLLVSWHERFRNKTINEHLTILRRISLKAVRDGVIARNPMTGVQNFKTVDPEPNPFTKKELARMHECKNVCTQGQNAVMLNLLTGLRISELIALSWQDINWEREVLYVRRACVLNIYKCPKTKGSVREVDLNPLALKLLKEQLKLTGKRRPQTINILECDNKTFTKDSVSFIFLNTKTNQPFTDAKEFTERFFIKFLEQAGVAHRGVGQLRHTFASQCLTTGISKDWLAVQMGHKSTTMIDKHYGRWIREDSPNYAREAAQHLQDIFGLPQIKPTVTLPAVPHSSLVLLKKLQSKPQLIQLLEGMLESDR”: the protein production result was “failed”.

On to “MKTKIIGVLGLGIFGQTLAQELSNFEQDVIAIDSNPENVQAVAEVVTKAAIGDITDLAFLKHIGISDCDTVIIATGNSLESSVLAVMHCKKLGVPQVIAKARNLVYEEVLYEIGADLVISPERESGQNVAANLMRNKITDVFQIESDISVIEFKIPKSWVGKTVEQLNIRHKFDLNLIGIRKAKNKPVDTEVPINSPLEEGIILVAIANSDAFQRYDYLGYFNLEHHHHHH”, for which the protein production entry is on record as “not failed”.

For the sequence “MKTKLMTLQDATGFFRDGMTIMVGGFMGIGTPSRLVEALLESGVRDLTLIANDTAFVDTGIGPLIVNGRVRKVIASHIGTNPETGRRMISGEMDVVLVPQGTLIEQIRCGGAGLGGFLTPTGVGTVVEEGKQTLTLDGKTWLLERPLRADLALIRAHRCDTLGNLTYQLSARNFNPLIALAADITLVEPDELVETGELQPDHIVTPGAVIDHIIVSQESK”, the protein production result is “not failed”.

Take “MKTKYIIASLGLATLLSFGANAAVHQVNAEQAQNLQPMGTISVSQIGSTPMDMRQEIVAKAEKAGANSYRIIELKEGDNWHATAELYKLEHHHHHH”: the protein production entry was “failed”.

On to “MKTLHVQTASSSYPVFIGQGIRKKACELLTSLNRPLTRIMFVTDEEVDRLYGDEMLHLLQEKWPVKKVTVPSGEQAKSMDMYTKLQSEAIRFHMDRSSCIIAFGGGVVGDLAGFVAATFMRGIDFIQMPTTLLAHDSAVGGKVAVNHPLGKNLIGAFYQPKAVLYDTDFLRSLPEKELRSGMAEVIKHAFIYDRAFLEELLNIHSLRDITNDQLNDMIFKGISIKASVVQQDEKEEGIRAYLNFGHTLGHAVEAEYGYGQITHGDAVALGMQFALYISEKTVGCEMDRKRLVSWLKSLGYPSQIRKETETSVLLNRMMNDKKTRGGKIQFIVLNELGKVADHTFSRNELESWLNKWRLEETS”, for which the protein production result was “failed”.

In the case of “MKTPTSRPVVLCLSGHDPSGGAGLQADIEALLAQGCHAAPAVTALTVQDTVNVSDFRVLDREWVLAQANAVLADLPVAAVKLGMLGSLEMVDTVAEILAAHPHLPVVCDPVLRAGGGGALGKGDVGFAMRERLLPRATIATPNLPEARLLADLPEGSADQCAERLLEHCEHLLITGGHGDESEVHNRLYSRDGSRRTFTCQRLPGSYHGSGCTLASALAGRIALGEALHGAVQSALDYTWRTLRDAESPGHGQYVPRRLPTDFCH”, the protein production result is given as “failed”.

(Values after a protein production outcome set (Wang et al. 2014).)
